T1: hiR2-FL-K573A-T7 (human, UniProt Q6PJF5 1-856)
T1 sequence: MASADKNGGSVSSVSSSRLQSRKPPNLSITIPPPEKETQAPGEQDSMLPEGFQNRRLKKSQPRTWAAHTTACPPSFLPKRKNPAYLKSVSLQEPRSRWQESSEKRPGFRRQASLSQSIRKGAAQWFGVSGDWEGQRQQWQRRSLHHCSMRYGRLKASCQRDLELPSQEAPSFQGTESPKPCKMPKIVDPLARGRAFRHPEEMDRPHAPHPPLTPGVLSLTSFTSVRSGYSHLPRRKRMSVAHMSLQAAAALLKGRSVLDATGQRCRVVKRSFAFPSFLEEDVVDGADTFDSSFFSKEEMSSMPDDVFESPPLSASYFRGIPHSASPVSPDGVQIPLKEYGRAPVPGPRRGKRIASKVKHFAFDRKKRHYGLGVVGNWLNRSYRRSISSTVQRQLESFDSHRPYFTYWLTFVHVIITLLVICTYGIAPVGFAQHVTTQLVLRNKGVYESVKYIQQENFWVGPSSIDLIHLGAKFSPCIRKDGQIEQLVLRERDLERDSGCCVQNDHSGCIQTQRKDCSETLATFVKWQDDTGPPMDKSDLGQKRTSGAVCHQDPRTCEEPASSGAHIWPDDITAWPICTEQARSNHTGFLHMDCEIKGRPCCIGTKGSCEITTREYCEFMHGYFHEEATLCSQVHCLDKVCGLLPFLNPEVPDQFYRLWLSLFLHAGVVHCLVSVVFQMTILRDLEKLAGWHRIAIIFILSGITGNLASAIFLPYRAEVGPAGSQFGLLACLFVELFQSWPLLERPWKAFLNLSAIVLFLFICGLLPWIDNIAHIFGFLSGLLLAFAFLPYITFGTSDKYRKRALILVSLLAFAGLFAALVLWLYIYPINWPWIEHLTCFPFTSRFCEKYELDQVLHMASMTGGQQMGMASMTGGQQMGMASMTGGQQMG

T2: hiR2-FL-C593A-T7 (human, UniProt Q6PJF5 1-856)
T2 construct: reduced surface expression reported
T2 sequence: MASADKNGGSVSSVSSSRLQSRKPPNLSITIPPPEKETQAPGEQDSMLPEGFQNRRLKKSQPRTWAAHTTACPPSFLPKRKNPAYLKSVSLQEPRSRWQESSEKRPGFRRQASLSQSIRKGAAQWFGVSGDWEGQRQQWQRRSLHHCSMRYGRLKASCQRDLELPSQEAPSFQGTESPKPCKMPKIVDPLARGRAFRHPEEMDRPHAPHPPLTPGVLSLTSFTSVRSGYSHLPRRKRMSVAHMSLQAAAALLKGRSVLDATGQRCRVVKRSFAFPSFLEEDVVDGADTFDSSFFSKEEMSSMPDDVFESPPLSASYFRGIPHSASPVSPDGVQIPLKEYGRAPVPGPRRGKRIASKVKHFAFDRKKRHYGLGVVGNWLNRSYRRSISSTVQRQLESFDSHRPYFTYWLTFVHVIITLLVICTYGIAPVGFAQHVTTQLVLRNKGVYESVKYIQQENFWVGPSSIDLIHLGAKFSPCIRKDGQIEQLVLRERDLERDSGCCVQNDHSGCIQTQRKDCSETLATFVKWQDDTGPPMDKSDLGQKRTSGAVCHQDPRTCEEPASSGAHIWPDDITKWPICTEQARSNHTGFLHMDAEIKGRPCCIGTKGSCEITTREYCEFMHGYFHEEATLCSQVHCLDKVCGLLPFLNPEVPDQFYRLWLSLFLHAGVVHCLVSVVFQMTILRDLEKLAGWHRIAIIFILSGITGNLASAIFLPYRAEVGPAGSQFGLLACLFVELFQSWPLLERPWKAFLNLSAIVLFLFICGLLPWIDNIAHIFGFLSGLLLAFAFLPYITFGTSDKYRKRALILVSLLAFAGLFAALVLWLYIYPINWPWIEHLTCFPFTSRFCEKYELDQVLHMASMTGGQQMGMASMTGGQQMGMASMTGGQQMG


Key:
hiR2-FL-K573A-T7 = target: T1, hiR2-FL-K573A-T7; assay: FACS on MEF-DKO cells expressing the variant, 3 µg/ml antibody
How it was run: (§1)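 Cells were stained with purified antibody at 3 μg/ml in FACS buffer for 1 hour on ice, with buffer-only controls. Bound antibody was detected with PE-conjugated goat anti-mouse IgG F(ab′)2 at 1:100, 1 hour on ice in the dark, followed by flow cytometry.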

hiR2-FL-C593A-T7 = target: T2, hiR2-FL-C593A-T7; assay: as above
How it was run: as §1

Binder | loss of binding vs wild type (hiR2-FL-K573A-T7) | loss of binding vs wild type (hiR2-FL-C593A-T7)
antibody 3 (antibody, V domains shown, mouse IgG, kappa light chain; also called clone #3; purified antibody 3) VH: QVTLKESGPGILQPSQTLSLTCSFSGFSLTTFAMGIGWVRQPSGKGLEWLAHIWWDGEKYNNPVLKSRLTISKDTSKNQVFLRIANVDTPDTATYYCARISSIYYIIDNWGQGTSVTVSS VL: DIVLTQSPATLSVTPGHSVSLSCRASQSISNNLHWYQKKSHESPRLLIKYVSQSISGIPSRFSGSGSGTDFTLSINSVETEDFGMYFCQQSYNWPLTFGAGTKLELK | ≥ 30% | 
antibody 50 (antibody, V domains shown, mouse IgG, kappa light chain; also called clone #50; purified antibody 50) VH: QVQLQQSGAELVRPGASVKVSCKASGYAFSNYLIEWVKQRPGQGLEWIGVINPGSGFTKYNEKFKGKATLTADKSSSTAYMQLSSLTSEDSAVYFCARGLYRAMDYWGQGTSVTVSS VL: DIQMTQSPASQSASLGESVTITCLASQTIGTWLAWYQQKPGKSPQLLIYAAASLADGVPSRFSGGGSGTKFSFKISSLQAEDFVNYYCQQIYSTPYTFGGGTKLEIK |  | ≥ 30%

From patent US20240287172A1 (SCIRHOM, published 2024)
